The assay addresses His6-Bcl-2ΔTM G154A/G155A mutant. Nature of the assay: fluorescence polarisation. Background: Polarisation of emitted light reports the rotation of a fluorescent probe.

What is called Kd is the constant that tells how readily two partners part at equilibrium. Low readings indicate higher affinity, high ones lower affinity. Consider “His6-Bcl-2ΔTM G154A/G155A mutant (domain or fragment)”, for which the dissociation constant Kd amounted to 30 nM.

For the origin of these results see paper PMC2858642.
